These results are taken from patent US20190315842A1 (DUKE UNIVERSITY, published 2019).

For test [1], the target named is T1, systemic lupus erythematosus autoantigen SSB (UniProt P05455 1-408, limits assumed).
T1 sequence (looked up): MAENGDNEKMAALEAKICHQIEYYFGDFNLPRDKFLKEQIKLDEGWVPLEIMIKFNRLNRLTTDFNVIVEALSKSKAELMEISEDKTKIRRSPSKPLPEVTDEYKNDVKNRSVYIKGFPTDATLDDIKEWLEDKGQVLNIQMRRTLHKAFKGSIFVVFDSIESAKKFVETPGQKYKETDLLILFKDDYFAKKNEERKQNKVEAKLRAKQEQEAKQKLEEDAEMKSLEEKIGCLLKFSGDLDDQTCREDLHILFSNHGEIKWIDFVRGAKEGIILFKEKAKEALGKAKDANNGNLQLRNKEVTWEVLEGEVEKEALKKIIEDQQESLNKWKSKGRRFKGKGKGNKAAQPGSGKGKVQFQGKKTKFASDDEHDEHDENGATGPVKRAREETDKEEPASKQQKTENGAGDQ
Description: AtheNA Multi-Lyte ANA, Ab at 12.5 ug/ml.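 Further: monoclonal antibodies screened for binding to a panel of nuclear autoantigens (SSA, SSB, Sm, RNP, Scl-70, Jo-1, dsDNA, CentB, histones), with anti-HIV and anti-RSV antibodies as controls.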
Description: (§1) All 7 mAbs were tested against the AtheNA Multi-Lyte panel of autoantigens. The AtheNA Multi-Lyte ANA test for a panel of nuclear antigens: systemic lupus erythematosus autoantigens SSA and SSB, sphingomyelin (Sm), ribonucleoprotein (RNP), sclerosis autoantigen (Scl-70), histidine-tRNA ligase (Jo-1), double-stranded DNA (dsDNA), centromere B (CentB), and histones. 4e10 (Anti HIV, NIH AIDS Reagent Program) and SYNAGIS® (anti-RSV monoclonal antibody palivizumab; “Synagis”) were used a controls.

Test [2] concerns the target T2, Sm (sphingomyelin).
T2 construct: in an ANA panel of nuclear antigens Sm is usually the Smith ribonucleoprotein antigen; Kept, but see recheck
Description: AtheNA Multi-Lyte ANA, Ab at 25 ug/ml.
Description: as §1

Test [3] deals with ribonucleoprotein (RNP). Description: AtheNA Multi-Lyte ANA, Ab at 25 ug/ml.
Description: as §1
Test [4] deals with systemic lupus erythematosus autoantigen SSA. Description: AtheNA Multi-Lyte ANA, Ab at 25 ug/ml.
Description: as §1
For test [5], the target named is T3, histidine-tRNA ligase (Jo-1) (UniProt P12081 2-509).
T3 sequence (looked up): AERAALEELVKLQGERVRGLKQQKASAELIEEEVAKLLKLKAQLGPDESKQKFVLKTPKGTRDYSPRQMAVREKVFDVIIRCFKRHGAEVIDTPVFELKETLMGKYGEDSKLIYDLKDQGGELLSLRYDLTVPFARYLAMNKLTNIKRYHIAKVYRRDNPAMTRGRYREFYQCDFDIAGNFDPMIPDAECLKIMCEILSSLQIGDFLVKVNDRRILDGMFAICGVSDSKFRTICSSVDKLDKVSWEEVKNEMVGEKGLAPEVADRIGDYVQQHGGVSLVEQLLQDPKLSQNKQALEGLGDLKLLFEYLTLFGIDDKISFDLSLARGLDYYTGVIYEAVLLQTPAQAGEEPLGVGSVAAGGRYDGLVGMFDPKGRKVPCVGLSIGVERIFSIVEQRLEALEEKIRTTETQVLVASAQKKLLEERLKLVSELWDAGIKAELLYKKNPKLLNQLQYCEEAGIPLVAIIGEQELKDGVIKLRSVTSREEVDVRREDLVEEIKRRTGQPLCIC
Description: AtheNA Multi-Lyte ANA, Ab at 25 ug/ml.
Description: as §1

Test [6] concerns the target T4, sclerosis autoantigen (Scl-70) (UniProt P11387 2-765, limits assumed).
T4 sequence (looked up): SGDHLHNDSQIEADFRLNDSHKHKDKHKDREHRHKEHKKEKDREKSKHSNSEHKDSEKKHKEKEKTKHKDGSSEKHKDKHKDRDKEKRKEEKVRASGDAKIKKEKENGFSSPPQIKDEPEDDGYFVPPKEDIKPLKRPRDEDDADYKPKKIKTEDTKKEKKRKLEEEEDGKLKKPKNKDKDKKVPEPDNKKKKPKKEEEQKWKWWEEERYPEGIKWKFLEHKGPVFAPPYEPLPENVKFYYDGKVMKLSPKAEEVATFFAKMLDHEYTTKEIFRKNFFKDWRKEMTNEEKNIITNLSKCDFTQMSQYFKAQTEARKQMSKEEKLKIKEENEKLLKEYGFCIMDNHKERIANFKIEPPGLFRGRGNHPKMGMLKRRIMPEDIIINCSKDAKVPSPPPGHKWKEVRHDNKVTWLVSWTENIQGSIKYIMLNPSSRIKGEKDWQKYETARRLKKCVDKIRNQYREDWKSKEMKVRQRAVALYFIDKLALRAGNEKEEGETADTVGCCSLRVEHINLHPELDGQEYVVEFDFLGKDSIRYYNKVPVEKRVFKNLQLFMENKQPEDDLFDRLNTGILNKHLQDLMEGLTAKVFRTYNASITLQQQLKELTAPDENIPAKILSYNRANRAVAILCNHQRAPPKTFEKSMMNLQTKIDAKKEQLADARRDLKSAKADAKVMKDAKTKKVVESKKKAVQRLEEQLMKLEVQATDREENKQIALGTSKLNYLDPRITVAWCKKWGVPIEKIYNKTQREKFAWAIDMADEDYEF
Description: AtheNA Multi-Lyte ANA, Ab at 25 ug/ml.
Description: as §1

Test [7] deals with T1, systemic lupus erythematosus …. Description: AtheNA Multi-Lyte ANA, Ab at 6.25 ug/ml.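 Further: monoclonal antibodies screened for reactivity against a panel of nuclear autoantigens, with an anti-HIV and an anti-RSV monoclonal antibody serving as controls.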
Description: as §1
Test [8] concerns the target T5, centromere B (CentB) (UniProt P07199 2-599).
T5 sequence (looked up): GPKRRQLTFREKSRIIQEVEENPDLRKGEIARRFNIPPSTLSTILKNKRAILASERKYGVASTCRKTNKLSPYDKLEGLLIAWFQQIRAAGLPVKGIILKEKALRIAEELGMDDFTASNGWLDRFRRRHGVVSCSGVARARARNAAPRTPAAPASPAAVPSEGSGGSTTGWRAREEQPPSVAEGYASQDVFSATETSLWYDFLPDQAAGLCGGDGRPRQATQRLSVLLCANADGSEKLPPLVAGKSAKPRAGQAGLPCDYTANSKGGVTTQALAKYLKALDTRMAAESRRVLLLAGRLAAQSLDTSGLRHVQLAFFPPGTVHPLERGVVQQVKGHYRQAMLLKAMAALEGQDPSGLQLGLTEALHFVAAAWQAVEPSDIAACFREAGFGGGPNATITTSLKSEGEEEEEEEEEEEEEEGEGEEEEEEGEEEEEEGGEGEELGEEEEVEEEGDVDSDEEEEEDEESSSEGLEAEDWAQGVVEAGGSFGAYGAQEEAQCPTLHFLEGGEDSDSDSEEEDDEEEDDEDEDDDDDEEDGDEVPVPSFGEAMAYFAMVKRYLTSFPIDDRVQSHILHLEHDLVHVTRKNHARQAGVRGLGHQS
Description: AtheNA Multi-Lyte ANA, Ab at 12.5 ug/ml.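 Further: monoclonal antibodies screened for binding to a panel of nuclear autoantigens (SSA, SSB, Sm, RNP, Scl-70, Jo-1, dsDNA, CentB, histones), with anti-HIV and anti-RSV antibodies as controls.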
Description: as §1

Test [9] deals with T5, centromere B (CentB). The experiment in a line: AtheNA Multi-Lyte ANA, Ab at 50 ug/ml.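 Further: monoclonal antibodies probed against a nuclear autoantigen panel (SSA, SSB, Sm, RNP, Scl-70, Jo-1, dsDNA, CentB, histones), with anti-HIV 4E10 and palivizumab as control antibodies.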
Test [10] deals with T5, centromere B (CentB). The experiment in a line: AtheNA Multi-Lyte ANA, Ab at 6.25 ug/ml.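 Further: monoclonal antibodies screened for reactivity against a panel of nuclear autoantigens, with an anti-HIV and an anti-RSV monoclonal antibody serving as controls.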
Description: as §1

B1: Ab7968 (antibody, IgG1, V domains shown)
VH: LVESGGGVVQPGRSLRLSCAASGFTFSRYGMHWVRQAPGKGLEWVAVMSYDGSTKYYADSVKGRFAISRDNPKNTLFLQMNSLRPDDTAVYYCAKGGAAAAVMDVWGKGTTVTVSS
VL: MTQSPDSLTVSLGERATISCKSSQRLLYSSNNKNYLAWYQQKPGQPPKLLMYWASTRESGVPDRFSGSGSGTDFSLTISSLQAEDVAVYYCQQYYNPPWTFGQGTKVEVK
notes: Recombinant human antibody with IgG1 heavy chain backbone and kappa light chain constant; they begin at LVESGGG and MTQSP; also called mAb 7968; mAb7968
On to B1, for which the AtheNA signal is 12 in test [1]; 5 in test [2]; 8 in test [3]; 8 in test [4]; 3 in [5]; 3 in test [6]. The AtheNA signal in test [7] turned out to be 7.

B2: Ab7957/293i (antibody, IgG1, V domains shown)
VH: LVESGGGVVPPGKSLRLSCAASGFTFSLYGIHWVRQAPGKGLEWVAVISYDGNTKYYTDSVKGRFTISRDNAKNTIYLQMNSLRLDDTAVYYCAKGAANSATFDFWGRGTMVTVSS
VL: MTQSPDSLTLSLGERATINCRSSRTVLYRSNNKNYLAWYQHKPGQPPKLLMSWASTRETGVPDRFSGSGSGTHFTLTITSLQPEDVAVYYCQQYYSPPWTFGQGTKVEIR
notes: Recombinant human antibody with IgG1 heavy chain backbone and kappa light chain constant; they begin at LVESGGG and MTQSP; also called Ab7957i; mAb 7957
Take B2: the AtheNA signal in test [8] came out at 2; in test [2], 3; in [3] it was 4; in test [4], 11; in [5], 4; in [6], 2. In addition, the AtheNA signal in test [9] is 4; in test [10], 2.

B3: Ab7962/293i (antibody, V domains shown)
VH: LVESGGGLVQPGGSLRLSCAASGFTFSSYEMNWVRQAPGKGLEWVSYISSSGSTIYYADSVKGRFTISRDNAKNSLYLQMNSLRAEDTAVYYCARVEQLAPSPYMDVWGKGTTVTVSS
VL: MTQSLDSLTVSLGERATINCKSSQSLLYTSNNKNYLAWYQQKSGQPPKLLIYWASIRDSGVPDRFSGSGSATDFTLTINNLQAEDVAVYFCQQYYKTPLTFGGGTKVEVR
notes: Recombinant human antibody with IgG1 heavy chain backbone and kappa light chain constant (IgM in the donor B cell); they begin at LVESGGG and MTQSL; also called clone 27; pH007962/pK005996
Regarding B3, the AtheNA signal was 5 in test [1]; 2 in test [8]; 3 in test [9]; 1 in test [7]; 1 in test [10].
